Measured values published in patent US20250327097A1, “ORGANISMS PRODUCING LESS CROTONIC ACID” (Global Bioenergies, priority 2021, published 2025).
Residue numbers refer to the chain shown, from its start. Numbers in names are those of the source.

B1: V272I-I283T-P284D-i284aP-N287P-S322T-N388M-E421V-C430N-L432F-L434W-S436N-C437F-Y438L-H461T-G462R-i462aA-A463T (protein)
chain: MFLKSLREQINLLKRQGDLRIINRPVDSYLEAAAIIRRSTETKAPVPLMTNIKGYPGCSIVGGLAALSSNPEYPLSRVAMSLGLSTTASAQSIVQYLIDGLKKTPYLPVEIDSNSAPCKQNILRGEDASLAHFPIPQVHQHDGNRYVNTWGVFIVESPDGQWCNWSIQRVQYLNDRQMIALVFPSQHISDIWEEWVKIGKPMPYALVQGCEPIVPYIAGLPLLERNVNEAEYIGALYGKGIEVVKCETHDLRVPASSEVVIEGYFAITREGIEGPFGEFAGYTDNEPSLQPILSITAISWQDDPIWPVVAEGKPVDEYHTCTGIGDAAAIQNVLLTANLPVSFVWVPLYSACHLMIVSINRHWRQTHPDLTSEQLTKKVGDVIHQTRMSIKLPKIVVLDDDVDPADTESLLWALATRIHPVRKRYFYESNIFPWLNFLSEEERHNRKGKRVIIDALLPENTRTISSFDYAYPDDIKQRVLMHWETDFSHD
B2: V272R-I283T-P284D-i284aP-N287P-S322T-N388M-E421V-C430N-L432F-L434W-S436N-E441H-G448E-H461T-G462R-i462aA-A463T (protein)
chain: B1 chain with I272R, F437C, L438Y, E441H, G448E
B3: G17S-V272R-I283T-P284D-i284aP-N287P-S322T-N388M-E421K-C430N-L432F-L434W-S436N-G448E-H461T-G462R-i462aA-A463T (protein)
chain: B1 chain with G17S, I272R, V421K, F437C, L438Y, G448E
B4: V272R-I283T-P284D-i284aP-N287P-S322T-N388M-E421V-E428T-C430N-L432F-L434W-S436N-G448E-H461T-G462R-i462aA-A463T (protein)
chain: B1 chain with I272R, E428T, F437C, L438Y, G448E
B5: S39G-V272R-I283T-P284D-i284aP-N287P-S322T-N388M-E421V-F426L-E428T-C430N-L432F-L434W-S436N-G448E-H461T-G462R-i462aA-A463T (protein)
chain: B1 chain with S39G, I272R, F426L, E428T, F437C, L438Y, G448E
B6: V272R-I283T-P284D-i284aP-N287P-S322T-N388M-I418V-E421V-C430N-L432F-L434W-S436N-G448E-H461T-G462R-i462aA-A463T (protein)
chain: B1 chain with I272R, I418V, F437C, L438Y, G448E
B7: V272R-I283T-P284D-i284aP-N287P-S322T-N388M-E421V-E428T-C430N-L432F-L434W-S436N-K447I-G448E-H461T-G462R-i462aA-A463T (protein)
chain: B1 chain with I272R, E428T, F437C, L438Y, K447I, G448E
B8: E224P-I283T-N285P-N287T-Q290E-S322T-N388M-S389H-K394R-C430A-i430aG-L432F-L434W-S436N-I453L-dG462 (protein)
chain: MFLKSLREQINLLKRQGDLRIINRPVDSYLEAAAIIRRSTETKAPVPLMTNIKGYPGCSIVGGLAALSSNPEYPLSRVAMSLGLSTTASAQSIVQYLIDGLKKTPYLPVEIDSNSAPCKQNILRGEDASLAHFPIPQVHQHDGNRYVNTWGVFIVESPDGQWCNWSIQRVQYLNDRQMIALVFPSQHISDIWEEWVKIGKPMPYALVQGCEPIVPYIAGLPLLPRNVNEAEYIGALYGKGIEVVKCETHDLRVPASSEVVIEGYFAITREGVEGPFGEFAGYTPPETSLEPILSITAISWQDDPIWPVVAEGKPVDEYHTCTGIGDAAAIQNVLLTANLPVSFVWVPLYSACHLMIVSINRHWRQTHPDLTSEQLTKKVGDVIHQTRMHIKLPRIVVLDDDVDPADTESLLWALATRIHPERKRYFYESAIFPWLNCYSEEERHNRKGKRVILDALLPENHGAISSFDYAYPDDIKQRVLMHWETDFSHD
B9: G380V-K391L-L432W-L434M (protein)
chain: MFLKSLREQINLLKRQGDLRIINRPVDSYLEAAAIIRRSTETKAPVPLMTNIKGYPGCSIVGGLAALSSNPEYPLSRVAMSLGLSTTASAQSIVQYLIDGLKKTPYLPVEIDSNSAPCKQNILRGEDASLAHFPIPQVHQHDGNRYVNTWGVFIVESPDGQWCNWSIQRVQYLNDRQMIALVFPSQHISDIWEEWVKIGKPMPYALVQGCEPIVPYIAGLPLLERNVNEAEYIGALYGKGIEVVKCETHDLRVPASSEVVIEGYFAITREGVEGPFGEFAGYIPNENSLQPILSITAISWQDDPIWPVVAEGKPVDEYHTCSGIGDAAAIQNVLLTANLPVSFVWVPLYSACHLMIVSINRHWRQTHPDLTSEQLTKKVVDVIHQTRNSILLPKIVVLDDDVDPADTESLLWALATRIHPERKRYFYESCIWPMLSCYSEEERHNRKGKRVIIDALLPENHGAISSFDYAYPDDIKQRVLMHWETDFSHD

Tested on: 3-methylcrotonic acid
Format: biochemical, Yersinia frederiksenii
Design: key: “+” representing a low increase in activity; “++++” representing a high increase in activity

Molecule	Activity relative to WT
B1	++++
B2	++++
B3	++++
B4	++++
B5	++++
B6	++++
B7	++++
B8	++++
B9	+
